The values below come from paper PMC3864023.

In data set [1] the target is ParC R564D;ParE (Escherichia coli;Escherichia coli, UniProt P0AFI2;P20083 1-752;1-630, R564D|). The experiment in a line: fluorescence anisotropy. On the technique in general: In fluorescence polarisation assays a small probe gives low polarisation when free and higher when bound to something large.
Data set [2] has as its target ParC WT;ParE (Escherichia coli;Escherichia coli, UniProt P0AFI2;P20083 1-752;1-630, |). Description: fluorescence anisotropy.

B1: 45mer duplex with strong topo II site, FAM (dsDNA)
DNA 1: GCCTATCCGAGGATGACGATGCGCGCATCGTCATACAGCGAATGG
DNA 2: CCATTCGCTGTATGACGATGCGCGCATCGTCATCCTCGGATAGGC
Regarding B1, the Kd in data set [1] is 15 3; in data set [2] it was 25 5.
